From patent US20210403549A1 come the findings set out here.

One may read the Kd as the free concentration of one partner at which half of the binding sites on the other are occupied at equilibrium, for simple one-to-one binding. A lower Kd goes with higher affinity.

In this assay the target is low density lipoprotein (LDL) (UniProt P04114). As to the kind of experiment: bio-layer interferometry with LDL; beside the traces: clear dose-dependent binding. (BLI is a label-free optical method that tracks binding on a fibre tip over time.)
Sequence of low density lipoprotein (LDL) (P04114 28-4563 limits assumed): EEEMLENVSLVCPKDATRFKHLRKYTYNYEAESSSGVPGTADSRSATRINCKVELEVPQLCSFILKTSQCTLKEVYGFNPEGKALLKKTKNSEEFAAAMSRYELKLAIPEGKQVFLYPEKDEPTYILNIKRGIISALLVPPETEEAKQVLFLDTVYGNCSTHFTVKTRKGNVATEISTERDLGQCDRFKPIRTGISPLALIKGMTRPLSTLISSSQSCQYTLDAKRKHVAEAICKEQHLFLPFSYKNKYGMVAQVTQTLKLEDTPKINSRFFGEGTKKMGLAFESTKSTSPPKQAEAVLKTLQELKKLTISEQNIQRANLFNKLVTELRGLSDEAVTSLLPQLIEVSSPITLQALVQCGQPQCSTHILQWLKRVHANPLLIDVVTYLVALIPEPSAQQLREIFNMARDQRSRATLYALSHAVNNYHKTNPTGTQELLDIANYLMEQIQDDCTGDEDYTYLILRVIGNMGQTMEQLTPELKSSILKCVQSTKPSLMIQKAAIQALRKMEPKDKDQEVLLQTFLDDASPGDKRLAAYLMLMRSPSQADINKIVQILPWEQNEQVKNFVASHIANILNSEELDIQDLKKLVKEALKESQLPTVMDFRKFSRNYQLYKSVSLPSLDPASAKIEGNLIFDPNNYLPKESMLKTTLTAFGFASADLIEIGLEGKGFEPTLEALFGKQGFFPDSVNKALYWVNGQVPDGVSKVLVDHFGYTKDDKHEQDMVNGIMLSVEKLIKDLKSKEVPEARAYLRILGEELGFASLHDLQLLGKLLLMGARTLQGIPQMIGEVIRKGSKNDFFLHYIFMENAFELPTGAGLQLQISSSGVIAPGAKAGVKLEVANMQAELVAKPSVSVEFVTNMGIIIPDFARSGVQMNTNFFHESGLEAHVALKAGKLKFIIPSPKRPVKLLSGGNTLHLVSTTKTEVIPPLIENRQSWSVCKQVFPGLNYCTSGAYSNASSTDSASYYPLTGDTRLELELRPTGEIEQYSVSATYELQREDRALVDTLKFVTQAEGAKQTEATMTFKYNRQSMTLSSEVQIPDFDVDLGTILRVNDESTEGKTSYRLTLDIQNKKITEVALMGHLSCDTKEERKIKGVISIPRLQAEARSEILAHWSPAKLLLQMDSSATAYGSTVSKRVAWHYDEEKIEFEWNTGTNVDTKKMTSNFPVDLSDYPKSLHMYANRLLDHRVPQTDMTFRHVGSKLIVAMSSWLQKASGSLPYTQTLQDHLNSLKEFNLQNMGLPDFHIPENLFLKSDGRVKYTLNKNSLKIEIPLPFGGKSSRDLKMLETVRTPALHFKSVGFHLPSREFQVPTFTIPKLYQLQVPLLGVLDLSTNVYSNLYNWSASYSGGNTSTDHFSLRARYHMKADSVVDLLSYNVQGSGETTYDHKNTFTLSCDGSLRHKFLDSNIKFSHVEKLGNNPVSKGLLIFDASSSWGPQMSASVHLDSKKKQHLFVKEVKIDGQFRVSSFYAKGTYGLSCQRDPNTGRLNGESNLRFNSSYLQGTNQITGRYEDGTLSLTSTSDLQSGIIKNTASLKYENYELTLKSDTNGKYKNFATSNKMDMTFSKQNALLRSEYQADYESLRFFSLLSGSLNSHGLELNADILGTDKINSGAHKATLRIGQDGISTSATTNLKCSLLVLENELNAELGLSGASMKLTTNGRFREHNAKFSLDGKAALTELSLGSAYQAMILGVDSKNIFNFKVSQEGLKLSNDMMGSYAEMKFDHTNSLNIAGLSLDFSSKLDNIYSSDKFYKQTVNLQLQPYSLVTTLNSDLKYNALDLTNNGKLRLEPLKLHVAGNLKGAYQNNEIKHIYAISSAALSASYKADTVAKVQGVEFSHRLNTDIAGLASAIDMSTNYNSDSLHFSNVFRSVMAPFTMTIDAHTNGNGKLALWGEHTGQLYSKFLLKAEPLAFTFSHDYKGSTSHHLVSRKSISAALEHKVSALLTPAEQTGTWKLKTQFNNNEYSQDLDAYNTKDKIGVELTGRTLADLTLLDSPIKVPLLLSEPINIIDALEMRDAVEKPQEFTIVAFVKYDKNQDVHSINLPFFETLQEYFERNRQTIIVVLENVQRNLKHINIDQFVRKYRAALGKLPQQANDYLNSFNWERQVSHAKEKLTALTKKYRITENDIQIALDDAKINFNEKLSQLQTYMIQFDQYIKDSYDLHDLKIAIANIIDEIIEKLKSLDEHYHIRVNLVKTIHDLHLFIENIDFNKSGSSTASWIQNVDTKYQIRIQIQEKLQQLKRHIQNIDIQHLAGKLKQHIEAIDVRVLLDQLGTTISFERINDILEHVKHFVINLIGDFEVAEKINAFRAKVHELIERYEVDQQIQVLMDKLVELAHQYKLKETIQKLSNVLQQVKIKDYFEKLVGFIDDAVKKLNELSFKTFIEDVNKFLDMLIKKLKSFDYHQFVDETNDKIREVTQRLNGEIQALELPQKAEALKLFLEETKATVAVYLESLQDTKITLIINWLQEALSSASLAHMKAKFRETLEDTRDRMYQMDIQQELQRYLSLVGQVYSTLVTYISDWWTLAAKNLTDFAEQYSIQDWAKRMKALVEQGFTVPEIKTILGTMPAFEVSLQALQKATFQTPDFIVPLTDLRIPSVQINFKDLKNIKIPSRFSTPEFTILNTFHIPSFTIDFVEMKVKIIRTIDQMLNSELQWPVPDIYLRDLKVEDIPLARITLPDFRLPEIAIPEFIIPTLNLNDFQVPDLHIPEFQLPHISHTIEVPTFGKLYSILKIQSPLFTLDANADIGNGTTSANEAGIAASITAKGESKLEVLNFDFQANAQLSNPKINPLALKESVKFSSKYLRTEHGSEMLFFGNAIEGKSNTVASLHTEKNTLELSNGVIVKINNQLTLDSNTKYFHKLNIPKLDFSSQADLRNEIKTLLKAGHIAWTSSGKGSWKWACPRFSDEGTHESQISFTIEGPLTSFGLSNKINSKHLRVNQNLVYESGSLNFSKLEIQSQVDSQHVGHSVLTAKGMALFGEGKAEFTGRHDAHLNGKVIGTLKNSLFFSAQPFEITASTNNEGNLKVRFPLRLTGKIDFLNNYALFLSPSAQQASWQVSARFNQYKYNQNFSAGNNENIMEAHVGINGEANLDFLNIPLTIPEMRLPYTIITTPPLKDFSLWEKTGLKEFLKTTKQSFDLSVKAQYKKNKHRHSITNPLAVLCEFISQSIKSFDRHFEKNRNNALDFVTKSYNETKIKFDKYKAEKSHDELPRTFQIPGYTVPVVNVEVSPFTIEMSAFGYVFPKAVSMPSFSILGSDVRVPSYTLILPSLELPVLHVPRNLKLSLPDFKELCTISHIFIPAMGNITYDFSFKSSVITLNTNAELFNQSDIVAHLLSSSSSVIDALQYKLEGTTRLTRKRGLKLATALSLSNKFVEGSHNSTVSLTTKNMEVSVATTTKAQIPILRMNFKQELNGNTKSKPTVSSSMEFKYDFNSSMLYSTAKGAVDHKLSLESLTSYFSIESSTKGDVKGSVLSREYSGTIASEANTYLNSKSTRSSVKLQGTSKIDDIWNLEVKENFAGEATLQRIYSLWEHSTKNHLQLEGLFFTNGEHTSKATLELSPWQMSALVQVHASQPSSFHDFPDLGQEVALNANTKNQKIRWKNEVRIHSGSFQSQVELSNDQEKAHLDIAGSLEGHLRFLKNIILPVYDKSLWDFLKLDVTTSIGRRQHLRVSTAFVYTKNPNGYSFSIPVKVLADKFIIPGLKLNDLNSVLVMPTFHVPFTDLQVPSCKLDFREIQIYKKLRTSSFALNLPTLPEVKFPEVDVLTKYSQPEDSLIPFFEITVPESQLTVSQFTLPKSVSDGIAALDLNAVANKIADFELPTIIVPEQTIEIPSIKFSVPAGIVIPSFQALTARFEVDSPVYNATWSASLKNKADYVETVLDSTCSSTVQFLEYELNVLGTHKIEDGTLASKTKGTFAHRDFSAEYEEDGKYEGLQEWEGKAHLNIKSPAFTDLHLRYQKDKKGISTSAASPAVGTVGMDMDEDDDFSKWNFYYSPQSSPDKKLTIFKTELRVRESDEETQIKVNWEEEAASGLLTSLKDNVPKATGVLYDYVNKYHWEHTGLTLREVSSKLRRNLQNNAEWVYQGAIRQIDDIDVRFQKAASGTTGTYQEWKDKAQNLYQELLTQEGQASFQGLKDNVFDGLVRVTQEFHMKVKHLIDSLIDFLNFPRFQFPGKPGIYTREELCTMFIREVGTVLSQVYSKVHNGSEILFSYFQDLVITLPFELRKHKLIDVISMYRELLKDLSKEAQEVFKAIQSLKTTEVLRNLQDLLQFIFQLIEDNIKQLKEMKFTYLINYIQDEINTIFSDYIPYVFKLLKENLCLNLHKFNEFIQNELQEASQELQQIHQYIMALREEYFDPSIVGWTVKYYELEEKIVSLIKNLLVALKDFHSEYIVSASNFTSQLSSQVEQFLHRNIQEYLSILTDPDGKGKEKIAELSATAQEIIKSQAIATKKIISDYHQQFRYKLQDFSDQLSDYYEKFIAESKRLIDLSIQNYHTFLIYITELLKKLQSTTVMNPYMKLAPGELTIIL

As for ALK1-E75A-hsIgG-Fc (Fc fusion), the Kd was 525 nM.
